Experimental data from article PMC7242495.

Test system: T1, CadR (Pseudomonas aeruginosa), ORF:ef015ded
T1 sequence: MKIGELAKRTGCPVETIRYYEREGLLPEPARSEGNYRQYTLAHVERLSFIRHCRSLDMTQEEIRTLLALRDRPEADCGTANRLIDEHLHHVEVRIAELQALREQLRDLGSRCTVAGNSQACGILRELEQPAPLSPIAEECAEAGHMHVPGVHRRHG
Test: EMSA
Settings: EMSA: 10 mM Tris pH 8.0, 40 mM KCl, 10 mM MgCl2, 1 mM DTT, 5% glycerol, 250 nM CadR, 25 ng DNA, +/- Zn or EDTA, 30 min room temperature, gel at 4 C …

Row | Sequence | binding
1 | CCATGATCATGTCCGTGACCGTGACCGTGACAGCAAGTGTCGGCGTGTTCGTGGCTCATGGAAACAATTCCCGTTTGACGTGTTGGGTGCGATTGCACACCCTGTAGCAACTACAGAGTCAAGCGGTACTGCCAATTCGGGTAGCCGCGTCGGCGATTGGAGGAGGGTTGGCATGAAGATCGGTGAGCTGGCGAAGAGAACCGGTT (double strand) [pcadA WT promoter (EMSA)] | binds
2 | GCTTCCGGTCAGCAGCAACGCCCATTTCAGGCGGGTCGAGTTGGTCTGGGCGAAGCTGTGCTCGTGTCCGGCGCTCATGGCGGCTCCTGTGGGGCGGTGGCGGCAGCACCAGCCTACAGGATAGGCAATTGCAAAACTGTCATGCGCCGGGCCGCTCTGGCGCGGCGTCCGCCGCTCCGCTAACCTGCGGCTCAGGCGCGGCCGCAGCCGCGCACGGAACGAGGGGGACGCATGACTCAACAGCACGA (double strand) [pczcD] | no binding
